Data reported in PMC10522637.

Molecular target: human Toll-like receptor 5 (3xFlag-hTLR5) (human) (UniProt O60602)
Sequence of UniProt O60602 (O60602 21-858): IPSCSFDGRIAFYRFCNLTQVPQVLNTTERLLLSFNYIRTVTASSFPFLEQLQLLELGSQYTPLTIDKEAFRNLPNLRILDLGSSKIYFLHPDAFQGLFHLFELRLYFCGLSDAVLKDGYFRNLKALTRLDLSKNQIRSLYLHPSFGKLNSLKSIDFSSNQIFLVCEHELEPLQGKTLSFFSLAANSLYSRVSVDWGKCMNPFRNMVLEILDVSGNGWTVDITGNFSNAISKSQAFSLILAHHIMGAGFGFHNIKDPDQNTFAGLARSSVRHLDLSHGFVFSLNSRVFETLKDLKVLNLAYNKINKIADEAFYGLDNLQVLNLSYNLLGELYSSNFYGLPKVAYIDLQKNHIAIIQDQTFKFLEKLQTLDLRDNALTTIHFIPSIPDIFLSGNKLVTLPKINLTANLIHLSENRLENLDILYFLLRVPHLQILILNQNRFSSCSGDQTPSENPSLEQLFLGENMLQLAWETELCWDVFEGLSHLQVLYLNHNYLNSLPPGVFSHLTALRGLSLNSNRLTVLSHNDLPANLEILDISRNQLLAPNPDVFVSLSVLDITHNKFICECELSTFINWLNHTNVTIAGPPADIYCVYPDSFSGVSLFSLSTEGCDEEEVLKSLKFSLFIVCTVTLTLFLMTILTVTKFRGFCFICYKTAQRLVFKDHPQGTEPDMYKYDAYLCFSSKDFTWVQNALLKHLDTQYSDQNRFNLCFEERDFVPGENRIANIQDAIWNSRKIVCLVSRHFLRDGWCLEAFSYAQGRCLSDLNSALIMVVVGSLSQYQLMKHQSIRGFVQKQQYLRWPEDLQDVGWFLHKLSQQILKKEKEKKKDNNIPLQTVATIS

| Substance | EC50 of TLR5-dependent NF-κB stimulating activity, HEK-Blue hTLR5 reporter cells [nM] |
| --- | --- |
| eukaryotic-expressed Vibrio vulnificus FlaB (eFlaB) (natural protein) | 13.8 |
| PNGase F-treated (deglycosylated) eFlaB (natural protein) | 3.88 |
| prokaryotic-expressed Vibrio vulnificus FlaB (pFlaB) (natural protein) | 3.32 |
